Source: article PMC5176175, “Bg10: A Novel Metagenomics Alcohol-Tolerant and Glucose-Stimulated GH1 ß-Glucosidase Suitable for Lactose-Free Milk Preparation” (PLoS ONE, 2016)

Substrate: O=[N+]([O-])c1ccc(O[C@@H]2O[C@H](CO)[C@@H](O)[C@H](O)[C@H]2O)cc1
Test: purified protein
Type: biochemical, uncultured bacterium
Conditions: pH 7.0, 37 °C, sodium phosphate buffer, 0.1-10 mM substrate

B1: Bg10 (uncultured bacterium) (protein)
chain: MTAVRSESAELSQSPASYRFPPGFVWGAATAAYQIEGAAAEDGRTPSIWDTFSHTPGRVLNGDTGDIAADHYHRFRDDVALMSDLNLGAYRFSVSWSRVQPTGRGPAVQRGLDFYRQLVDELLEKGITPVATLYHWDLPQDLEDVGGWTVRDTPERFAEYTEIVAAALGDRVPYWTTLNEPWCSAYLGYGSGVHAPGRTDPEAALKAVHHLNLAHGRGIGVLRSLLPSTARTSITLNLHQIRPLSTSPADLDAARRIDAVGNRVWLGPILDGAYPQDVLADTGHLVDWDRLVRDGDLEEISRPIDLLGINYYTPTLVSDGRAHADGPAMPRNDGHGASAHSPWPGSEHVAFHLAPGETTAMRWAVDASGLYDLLMRIHREHPGLPMMVTENGAAYDDYISPEGAINDPDRIAYLRGHLSAVHRALADGADVRGYFLWSLLDNFEWAYGYSKRFGAVYVDFGTQRRIPKQSAHWYAAVARDNVLPDGPEEDGTS
notes: ORF10 in pET28a (EcoRI/HindIII), E. coli BL21(DE3), Ni-NTA and size exclusion
Km: 0.49 ± 0.12 mM | kcat: 175.1 ± 6.91 min⁻¹
